The target in experiment [1] is GnRH receptor (GnRHR or LHRHR) (UniProt P30968). As to the kind of experiment: cell-based or functional assay.
Experiment [2] concerns the target bradykinin receptor 2 (BDKRB2) (UniProt P30411). Description: cell-based or functional assay.
The target in experiment [3] is melanocortin receptor 4 (MC4R) (UniProt P32245). Description: cell-based or functional assay.
Experiment [4] concerns the target melanocortin receptor 1 (MC1R) (UniProt Q01726). Description: cell-based or functional assay.
The target of experiment [5] is PTH receptor 1 (PTHR1) (UniProt Q03431). As to the kind of experiment: cell-based or functional assay.
In experiment [6] the target is FITC-labled GnRH molecule (a peptide) (UniProt P01148). Description: Centricon filter release assay: FITC-GnRH that passed into the lower chamber with nongel-forming peptide at 1 mg/100 ml (control without carrier 72.50).
Experiment [7] has the same target. Description: Centricon filter release assay: FITC-GnRH that passed into the lower chamber with nongel-forming peptide at 1 mg/10 ml (control without carrier 72.50).
In experiment [8] the target is kappa opioid receptor (OPRK1) (UniProt P41145). As to the kind of experiment: cell-based or functional assay.
Sequence of kappa opioid receptor (OPRK1) (P41145 whole entry): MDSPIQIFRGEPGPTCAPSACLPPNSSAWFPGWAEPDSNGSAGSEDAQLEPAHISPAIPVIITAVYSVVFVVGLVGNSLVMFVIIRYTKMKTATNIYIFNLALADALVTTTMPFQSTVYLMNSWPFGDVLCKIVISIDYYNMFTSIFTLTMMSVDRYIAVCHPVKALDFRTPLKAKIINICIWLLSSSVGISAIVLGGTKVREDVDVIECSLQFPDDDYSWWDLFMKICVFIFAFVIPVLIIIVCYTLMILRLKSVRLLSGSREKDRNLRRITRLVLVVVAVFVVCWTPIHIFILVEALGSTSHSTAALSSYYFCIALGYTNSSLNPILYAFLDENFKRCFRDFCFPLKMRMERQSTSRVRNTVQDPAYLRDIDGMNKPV

Sequence of GnRH receptor (GnRHR or LHRHR) (P30968 whole entry): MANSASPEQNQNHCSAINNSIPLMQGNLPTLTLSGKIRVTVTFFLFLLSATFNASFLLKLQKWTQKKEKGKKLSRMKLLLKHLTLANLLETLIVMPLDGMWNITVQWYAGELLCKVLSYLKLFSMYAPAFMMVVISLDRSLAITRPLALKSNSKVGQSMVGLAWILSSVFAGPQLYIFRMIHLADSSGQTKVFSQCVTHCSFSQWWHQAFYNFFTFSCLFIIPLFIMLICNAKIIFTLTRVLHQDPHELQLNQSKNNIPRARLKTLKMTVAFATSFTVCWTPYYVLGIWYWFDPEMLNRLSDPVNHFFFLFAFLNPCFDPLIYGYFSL
Sequence of melanocortin receptor 1 (MC1R) (Q01726 whole entry): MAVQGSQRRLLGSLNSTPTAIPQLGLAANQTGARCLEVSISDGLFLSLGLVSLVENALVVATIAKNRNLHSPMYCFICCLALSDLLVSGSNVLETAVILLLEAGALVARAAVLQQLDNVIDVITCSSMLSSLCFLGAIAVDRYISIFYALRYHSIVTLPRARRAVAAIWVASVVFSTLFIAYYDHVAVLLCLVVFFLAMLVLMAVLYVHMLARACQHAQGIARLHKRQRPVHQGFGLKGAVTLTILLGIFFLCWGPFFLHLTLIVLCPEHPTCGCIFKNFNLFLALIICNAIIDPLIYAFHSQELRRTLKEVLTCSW
Sequence of bradykinin receptor 2 (BDKRB2) (P30411 whole entry): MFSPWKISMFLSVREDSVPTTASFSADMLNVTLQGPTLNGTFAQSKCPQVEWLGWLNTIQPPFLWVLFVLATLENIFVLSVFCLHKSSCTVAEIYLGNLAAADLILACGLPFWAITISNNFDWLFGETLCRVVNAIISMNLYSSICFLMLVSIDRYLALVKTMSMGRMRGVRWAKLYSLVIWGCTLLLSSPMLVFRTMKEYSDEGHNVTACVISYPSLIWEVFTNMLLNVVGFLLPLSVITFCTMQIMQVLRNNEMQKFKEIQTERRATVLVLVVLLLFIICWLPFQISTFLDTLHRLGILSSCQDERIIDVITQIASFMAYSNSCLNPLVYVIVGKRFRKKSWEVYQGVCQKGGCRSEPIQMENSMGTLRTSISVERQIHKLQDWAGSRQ
Sequence of melanocortin receptor 4 (MC4R) (P32245 whole entry): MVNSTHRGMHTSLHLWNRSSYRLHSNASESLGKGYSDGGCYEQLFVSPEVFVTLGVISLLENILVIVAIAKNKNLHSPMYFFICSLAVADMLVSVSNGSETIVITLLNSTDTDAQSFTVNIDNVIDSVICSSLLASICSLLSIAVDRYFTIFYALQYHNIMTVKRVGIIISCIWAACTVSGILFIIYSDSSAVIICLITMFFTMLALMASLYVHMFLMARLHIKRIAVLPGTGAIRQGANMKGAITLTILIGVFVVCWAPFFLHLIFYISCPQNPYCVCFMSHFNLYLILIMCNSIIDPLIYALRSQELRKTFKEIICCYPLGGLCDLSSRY
Sequence of PTH receptor 1 (PTHR1) (Q03431 27-593 limits assumed): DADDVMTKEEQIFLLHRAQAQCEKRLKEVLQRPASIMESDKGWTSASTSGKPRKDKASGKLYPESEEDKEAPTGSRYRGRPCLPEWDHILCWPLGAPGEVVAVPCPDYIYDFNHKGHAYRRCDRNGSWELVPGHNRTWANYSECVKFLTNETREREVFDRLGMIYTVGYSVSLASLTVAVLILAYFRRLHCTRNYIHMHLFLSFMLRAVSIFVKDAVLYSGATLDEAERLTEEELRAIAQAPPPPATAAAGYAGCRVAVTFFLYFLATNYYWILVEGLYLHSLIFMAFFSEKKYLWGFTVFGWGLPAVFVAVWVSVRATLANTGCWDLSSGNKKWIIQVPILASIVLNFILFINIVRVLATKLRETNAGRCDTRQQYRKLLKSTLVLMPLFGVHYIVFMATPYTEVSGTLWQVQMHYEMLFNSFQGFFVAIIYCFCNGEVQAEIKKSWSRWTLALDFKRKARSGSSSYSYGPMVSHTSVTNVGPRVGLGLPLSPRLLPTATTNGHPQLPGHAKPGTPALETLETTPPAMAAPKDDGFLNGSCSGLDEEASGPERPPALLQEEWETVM

With Cetrorelix (positive control) (peptide), in experiment [1], the IC50 (nM), GnRHR calcium flux antagonistic assay came out at 0.08 nM and the Max Activity % of positive control, GnRHR calcium flux antagonistic assay (% of positive control) stood at 91.4.

In the case of “HOE140 (a BKR2 antagonist), (D-Arg)-Arg-Pro-Hyp-Gly-Thi-Ser-(D-Tic)-Oic-Arg (peptide)”, in experiment [2], the IC50 (nM), BDKRB2 arrestin antagonistic assay is 132 nM and the Max Activity % of positive control, BDKRB2 arrestin antagonistic assay (% of positive control) worked out at 100.

In experiment [3], Melanotan II peptide (positive control) had an EC50 (nM), MC4R cAMP agonistic assay of 2 nM and a Max Activity % of positive control, MC4R cAMP agonistic assay (% of positive control) of 101. In addition, in experiment [4], the EC50 (nM), MC1R cAMP agonistic assay was 0.56 nM and the Max Activity % of positive control, MC1R cAMP agonistic assay (% of positive control) stood at 102.

In experiment [5], “PTH(1-34) peptide (positive control) (from UniProt P01270 32-65)” showed an EC50 (nM), PTHR1 cAMP agonistic assay of 0.8 nM and a Max Activity % of positive control, PTHR1 cAMP agonistic assay (% of positive control) of 101.

Regarding “SEQ ID NO:133, Pal-VGSNTY-NH2, nongel-forming peptide”, the Fluorescent Reading (average of duplicates) in experiment [6] was determined as 71; in experiment [7], 55.4.

For “SEQ ID NO: 203, Pal-HSY-(D-Nal)-(D-Cpa)-(D-Pal)-SY-(D-Cit)-LRP-(D-Ala)-NH2, gel-forming GnRHR antagonist analog (peptide)”, in experiment [1], the IC50 (nM), GnRHR calcium flux antagonistic assay was below 0.51 nM and the Max Activity % of positive control, GnRHR calcium flux antagonistic assay (% of positive control) came out at 109.

In the case of “SEQ ID NO: 214, Pal-SSPHSY-miniPEG-(D-Phe)-(D-Phe)-Trp-(D-Arg), gel-forming kappa opioid receptor agonist (peptide)”, in experiment [8], the EC50 (nM), OPRK1 cAMP agonistic assay was 272 nM and the Max Activity % of positive control, OPRK1 cAMP agonistic assay (% of positive control) worked out at 62.

Take “SEQ ID NO: 224, Pal-HSYS-Nle-EH-(D-Phe)-RWGKPV-NH2, conjugated gel-forming Afamelanotide (melanotan I) analog (peptide)”: in experiment [4], the EC50 (nM), MC1R cAMP agonistic assay is below 0.05 nM and the Max Activity % of positive control, MC1R cAMP agonistic assay (% of positive control) is 120.

With “SEQ ID NO: 228, Pal-HSYRC-(D-Ala)-H-(D-Phe)-RWC-NH2, conjugated gel-forming setmelanotide analog (peptide)”, in experiment [3], the EC50 (nM), MC4R cAMP agonistic assay was determined as 0.15 nM and the Max Activity % of positive control, MC4R cAMP agonistic assay (% of positive control) stood at 115.

In experiment [2], “SEQ ID NO: 234, Pal-HSY-(D-Arg)-Arg-Pro-Hyp-Gly-Thi-Ser-(D-Tic)-Oic-Arg-NH2, conjugated bradykinin receptor antagonist (peptide)” displayed an IC50 (nM), BDKRB2 arrestin antagonistic assay of 53.3 nM and a Max Activity % of positive control, BDKRB2 arrestin antagonistic assay (% of positive control) of 112.

For the origin of these results see US20200405868A1, “GEL-FORMING POLYPEPTIDES” (priority 2018, published 2020).
